Experimental data as given in patent publication US20160009788A1 (UNITED STATES OF AMERICA AS REPRESENTED BY THE SECRETARY …, published 2016).

T1: Norwalk virus (NV, GI.1) recombinant virus-like particles (capsid protein VP1) (Norwalk virus, UniProt Q83884 1-530)
T1 sequence: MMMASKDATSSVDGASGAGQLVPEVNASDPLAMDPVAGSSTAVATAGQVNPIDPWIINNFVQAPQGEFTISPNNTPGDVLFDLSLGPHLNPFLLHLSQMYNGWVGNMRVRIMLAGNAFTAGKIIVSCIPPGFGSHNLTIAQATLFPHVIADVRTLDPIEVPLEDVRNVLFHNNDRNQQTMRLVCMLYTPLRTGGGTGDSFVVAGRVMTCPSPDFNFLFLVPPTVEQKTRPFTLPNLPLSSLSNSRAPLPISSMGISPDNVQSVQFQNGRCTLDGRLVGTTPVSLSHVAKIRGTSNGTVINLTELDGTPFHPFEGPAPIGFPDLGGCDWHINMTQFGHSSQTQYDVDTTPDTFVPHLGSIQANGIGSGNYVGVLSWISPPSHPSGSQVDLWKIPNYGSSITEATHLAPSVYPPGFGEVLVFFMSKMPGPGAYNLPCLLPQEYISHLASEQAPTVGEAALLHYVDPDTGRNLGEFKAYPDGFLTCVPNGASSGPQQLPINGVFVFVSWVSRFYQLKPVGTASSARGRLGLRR

B1: anti-NoV GII.4 mAb D4 (IgG) (antibody, V domains shown)
VH: EVQLVESGPGLVKPSETLSLTCAVSGASIRRANWWGWIRQAPGKGLEWLGSIFINAGTIYNPSLTGRVTVSADTSKNLFSLKLGSVTAADTAVYYCVKSYGDGDDNYNSFYYYMDVWGKGTSVIVSS
VL: DVVMTQSPSSLSASVGDRVTITCRASQDIRNNLAWYQHKPGKAPKLLIYYASKLQSGVPLRFSGSGSGTDYTLFISSLQPEDFATYYCQQYKTDTPYSFGQGTKVDIKR
B2: anti-NoV GII.4 mAb G3 (IgG) (antibody, V domains shown)
VH: EVQLEQSGGGLVKPGGSLRLSCAGSGFSFSAHTINWVRQAPGKGLEWVGFIRSQAQGGTREYAASVKGRIILSRDDSENSAYLQMNSLNTGDTAVYYCARDSSRGYYSYYLDVWGKGTTVTVSS
VL: ELTQSPSSLSASVGDRVTITCRASQGISNRLNWYQQKPGKAPKLLIYDASSLESGVPSRFSGSGSGTDFTLTISSQQPEDFATYYCQQFNSYPLTFGGGTKVEIKR
B3: anti-GII.4 NV Fab B72 (Fab, V domains shown)
VH: EVQLEQSGAEVKKPGSSVKVSCKISGGTFSRHPISWVRQAPGQGLLWMGAIILRAGTTKYEQRFQGRITITADESTGTAYMELHSLTSEDTGLYFCATDRMGTFDELLFDSWGQGTLVTVSS
VL: ELQMTQSPASLSASVGDRVTITCRASQGIRNNLGWYQQKPGKPPKLLIYAASTLQSGVPSRFSGSGSGTGFTLTISSLQPEDFATYYCLQDYDFPLTFGGGTKVEIKR
B4: anti-GII.4 NV Fab C9 (Fab, V domains shown)
VH: EVQLEESGGVLVKPGGSLRLSCAASGFTFSSHAMHWVRQAPGKGLEWVAIINSGHRADYADSVKDRFTISRDNSKNTLYLQMDSLRPEDTAFYYCAREGDQQDVAD
VL: ELTQSPSTLSASVGDRVTITCRASEDIMSYLAWYQQKPAKAPRLLIYYASSLQSGVPSRFSGSGSGTEFTLTISSLQPEDFATYYCQQLHTFPITFGPGTRLDIKRT
B5: anti-GII.4 NV Fab D4 (Fab, V domains shown)
VH: B1 VH
VL: B1 VL
B6: anti-GII.4 NV Fab G3 (Fab, V domains shown)
VH: B2 VH
VL: B2 VL
B7: anti-NV Fab D8 (Fab, V domains shown)
VH: EVQLEESGGGLVQPGGSLRVSCAASGFPFNGYWIHWVRQAPGKGLEWVSRVNSDGRITNFADSVMGRFTMSRDNAKSTVYLQMNSLRAEDTAMYYCSRGGYTGYPEGHWGQGTLVTVS
VL: ELQMTQSPSSLSAAVGDSVTITCRASQGISIHLAWYQQKPGKVPNLLIYAASTLQSGVPSRFSGSGSGTDFTLTINSLQPEVFATYYCQKYDSAPFTFGPGTKVDIKR
B8: anti-NV IgG G4 (antibody, V domains shown)
VH: EVQLEESGGGLVKPGGSLRLSCAASGFTFSHYVMYWVRQAPEKGLEWVSTISGSGSSTWYPDSVKGRFTVSRDNSKNTLYLQMNSLRGDDTAVYYCARLQGQLVYWGLGTLVTVS
VL: ELQMTQSPSTLSASVGDRVTITCRASQGISSWLAWYQQKPGRAPKLLIYKSSTLESGVPSRFSGSGSGTEFTLTISSLQPDDFATYFCQQYSSNPPLTFGGGTKVEIKR
B9: anti-NV Fab B7 (Fab, V domains shown)
VH: EVQLEESGGDLVQPGGSLTLSCAASGFTFSRYWMSWVRQAPGKGPEWVASIKKDGSETFYADSVKGRFIISRDIAKTSLYLQMNSLRADDTAVYYCLRAWYSSAYDFWGQGTLVTVS
VL: ELELTQSPSSLSASVGDRVTITCRASQSISNYLNWYQQKPGKAPNLLIYYASTLQSGVPSRFSGSGSGTDFTLTISSLQPEDFATYYCQHGYGAIAFGQGTRLEIKR
B10: anti-NV Fab F11 (Fab, V domains shown)
VH: EVQLVETGGSLVQPGGSLRLSCAASGFSVSIYHMSWVRQAPGKGLEWVSLLYSGGSTYYADSVKGRFTISRDNSKNTLYLQMNSLRAEDTAVYYCARDYSGSWVGDEARSYYYYYYMDVWGKGTTVTVS
VL: ELQVTQSPSSLSASVGDRVTITCQASQDISYYLNWYQQRPGKVPKLLIYSASYLHSGVPSRFSGSGSGTDFTLTISSLQPEDVATYYCQRTYNAPYTFGQGTKVEIKR
B11: anti-NV Fab E5 (Fab, V domains shown)
VH: EVQLEQSGGGLIKPGGSLRLSCAASGFTFTKYVMHWVRQAPEKGLQWVSAIGGSGGSAWYADSVKGRFTISRDNSKNTLYLQMNSLRAEDTAVYYCARDHARYSGYNSPHEVDSWGQGTLVAVS
VL: ELELTQSPSSLSASVGDRVTITCRASQGISNYLAWYQQKPGKVPKLLIYAASTLQSGVPSRFSGSGSGTDFTLTISSLQPEDVATYYCQKYNSAPLTFGGGTKVEIKR
notes: also called ES [sic]

Experiments:
[1] = biological target: MD145 virus-like particle (GII.4, capsid protein VP1) (Norovirus GII.4 strain MD145-12)
[2] = biological target: MD145 virus-like particle (GII.4, capsid protein VP1) (Norovirus GII.4 strain MD145-12); assay: SPR (Biacore 1000), Fab on MD145 virus-like particle
bovine serum albumin [3] = biological target: T2, bovine serum albumin (bovine, UniProt P02769 25-607); assay: ELISA, antigen coated directly on the plate
T2 construct: Control antigen; also called BSA
T2 sequence (P02769 25-607 limits assumed): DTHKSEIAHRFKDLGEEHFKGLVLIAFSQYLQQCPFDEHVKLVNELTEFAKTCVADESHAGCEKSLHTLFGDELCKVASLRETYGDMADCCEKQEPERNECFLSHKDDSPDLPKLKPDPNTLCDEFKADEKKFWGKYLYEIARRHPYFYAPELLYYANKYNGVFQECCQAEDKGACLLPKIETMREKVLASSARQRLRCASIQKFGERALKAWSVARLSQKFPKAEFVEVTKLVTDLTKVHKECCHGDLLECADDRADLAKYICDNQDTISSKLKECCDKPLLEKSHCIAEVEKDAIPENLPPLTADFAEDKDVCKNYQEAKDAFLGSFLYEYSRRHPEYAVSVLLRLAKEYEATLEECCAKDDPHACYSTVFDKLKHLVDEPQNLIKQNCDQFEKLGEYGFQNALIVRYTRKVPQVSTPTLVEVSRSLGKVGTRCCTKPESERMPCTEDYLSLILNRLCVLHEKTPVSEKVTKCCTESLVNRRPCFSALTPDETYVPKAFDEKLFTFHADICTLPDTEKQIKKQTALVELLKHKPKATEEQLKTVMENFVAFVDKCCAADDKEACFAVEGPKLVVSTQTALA

[4] = biological target: T1, Norwalk virus (NV, GI.1) recombinant …
bovine serum albumin [5] = biological target: T2, bovine serum albumin; assay: ELISA, antigen on the solid phase, soluble Fab

Binder	Kd [2]	koff [2]	kon [2]	also measured
B1				IC50 (read off the curve) [1]: 1 µg/mL
B2				IC50 (read off the curve) [1]: 1 µg/mL
B3	0.351 nM	5.66e-05 s⁻¹	161000 M⁻¹ s⁻¹	
B4	27.7 nM	0.00382 s⁻¹	138000 M⁻¹ s⁻¹	
B5	0.121 nM	0.000178 s⁻¹	1.47e+06 M⁻¹ s⁻¹	
B6	2.61 nM	0.000421 s⁻¹	162000 M⁻¹ s⁻¹	
B7				binding result (bovine serum albumin [3]): no binding
B8				IC50 [4]: ~2.8 nM
B9				binding result (bovine serum albumin [5]): no binding
B10				binding result (bovine serum albumin [5]): no binding
B11				binding result (bovine serum albumin [5]): no binding
